# Measured values: paper PMC3557383
# Biological target: T1, RepA (ORF3) (Moraxella bovis ATCC 10900 (plasmid pMbo4.6)) (UniProt D0V0D3)
# T1 sequence: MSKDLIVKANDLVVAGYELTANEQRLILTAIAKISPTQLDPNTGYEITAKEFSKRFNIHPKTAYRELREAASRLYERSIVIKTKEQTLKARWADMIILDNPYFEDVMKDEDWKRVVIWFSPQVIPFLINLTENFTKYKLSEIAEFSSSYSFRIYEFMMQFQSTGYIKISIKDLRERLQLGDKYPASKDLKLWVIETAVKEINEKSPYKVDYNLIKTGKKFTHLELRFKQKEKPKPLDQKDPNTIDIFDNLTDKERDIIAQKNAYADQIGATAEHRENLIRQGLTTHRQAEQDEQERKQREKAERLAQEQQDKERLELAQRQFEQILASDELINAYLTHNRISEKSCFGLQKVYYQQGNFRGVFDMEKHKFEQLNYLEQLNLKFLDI
# Assay: EMSA
# Conditions: 10 mM Tris-HCl pH 7.5, 10 mM MgCl2, 100 mM NaCl, 0.2 mM DTT, 5% glycerol, 30 ul, 22 C 20 min; 6% PAGE 0.4x TBE at 4 C
row,Sequence,binding
1,CTAGGAGGGATTGACTACCAAATAGGAGGGATTGACTACTCAAATAGGAGGGATTGACTACTCAAATAGGAGGGATTGACTACCAAATAGGAGTATTTACAATAACTCTTTTTAGGTGTATAATTAATTACTCCTTTTTTGCTAATGAGACCTAAAAATGAGCAAAGATTTAATTGTAGGATCCAA (double strand) [orirep15],binds
2,AAGAATTCGGGCGTGGTTTTGGGGATTGATTTTGTTTTGTCTTTTTAGCTAAAAAAACAAGAAAATTAACAAGAAAAAGAGCCAAAACCGAGTGCTTTTTCGGTTTTGGCGTTTTTTTATTTTTTTAATATATTTTTAATAGTTTTTAGACCCCCTGCAAAGCCTTATGTATCAAAGGTTTGCG (double strand) [orirep32],no binding
